Assay results reported in publication PMC4333420, “REV7 is essential for DNA damage tolerance via two REV3L binding sites in mammalian DNA polymerase ζ” (Nucleic Acids Research, 2015).

B1: GST-REV3L 1847–1898 (domain or fragment, human, UniProt O60673 1847-1898, looked up)
chain: MLTPTPDSSPRSTSSPSQSKNGSFTPRTANILKPLMSPPSREEIMATLLDHD
notes: Cloned into pGEX6P-1 (GE Healthcare); also called positive control; source: E. coli, purified
B2: GST-REV3L 1974–2025 (domain or fragment, human, UniProt O60673 1974-2025, looked up)
chain: GVVNKGSSNSPKMVEDKKIVIMPCKCAPSRQLVQVWLQAKEEYERSKKLPKT
notes: Cloned into pGEX6P-1 (GE Healthcare); source: E. coli, purified

Target: T1, His-REV7 (human, UniProt Q9UI95 1-211)
T1 construct: REV7 (MAD2L2), human; amplified from REV7 cDNA with primers from the start codon to the stop codon, cloned into pETDuet-1; Cloned into pETDuet-1 (SalI-NotI); also called His-REV7 fusion protein; source: E. coli, purified
Assay: pull-down; GST-fusion REV3L fragment, His-REV7 and Glutathione-Sepharose 4B beads, 4°C for 4 h in 500 μl of 0.1B; blot with anti-His and anti-GST
Conditions: both partners purified

T1 sequence (Q9UI95 whole entry, the tested form may be a part): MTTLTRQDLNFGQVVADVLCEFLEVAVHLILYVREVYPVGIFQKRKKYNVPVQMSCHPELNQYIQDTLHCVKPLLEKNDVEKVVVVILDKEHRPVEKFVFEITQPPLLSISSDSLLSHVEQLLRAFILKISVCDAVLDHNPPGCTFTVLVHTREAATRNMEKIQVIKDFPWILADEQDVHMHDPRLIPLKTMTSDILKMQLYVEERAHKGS

binding result	Binder
binds	B1
binds	B2
